In a protein production outcome set (Wang et al. 2014) one finds protein production data, which are given here for 21 sequences.

A short description of the series: label from the status in PepcDB records.
“MAVKFFGQFLVEKGVVSRETLLQAIELQESVNLSFGATSLAMGILTEADIERIHNAQRIEDLRFGDMAVKLGLLTSEQMMQVLTRQKNTHLYIGEALVKVGSFQADELPKYLEEFKADQAQYATDTVVIPTGVSEPKIWEMVADLSYKMLTRVALLVFRPEPCFVADRVPAMDVYATMDFTGDISGRYFMGVTAATQKKIAKAILKEPNVDNEPKEILDDTVMEFVNVALGNIAAKAAQSGKSMEIAPPEIIEAPDGIQVPDGHKALCFPVCLSDGDRIELAVFIQQLEHHHHHH”: the protein production entry is reported as “not failed”.

Turning to “MEKQKEVQKEYEEYQYMLDTETWKKELSQFKLSSSEKISKNPKVSIIIANYNNAPYLKKMMDSLVQQTIGIEQLQVMFIDDCSTDHSLKVIEPYLERYPNIEIYQLLENTGGAHGPRNVGIVNARGEYSVFLDADDWYDLNALKYLSDLLDDSHDDFAVSGLIQSTDGHLMLKSKPYYVDGSFKNRSIQELPAEFYGWLGPQAIMLRTSLIHNNNLHFVNQRVADDVLFFYEAMRFSKTITQGERLTTYLNRDADNESLSKSINRTFMLSWLRALSYINQQFPDDLSKERMLARRLEWLIYDFCIRRNTGYPFSKRRLQDFKVQMDQYLGELNFDPSPYFRSDVRQIIWTFLQTNDIDGLYWFIQCQSIRWVLVNRFGYVSKTERSYYYPRLLKRFPAVRMNAYAEATQREGNTLSLNVYTHQKITGFEIKELKNPFETRQRLAFKKISETSYQVELPEKFSNKESRFTIVFDNYLEIGVKDFSKFFALEHHHHHH”, the protein production result is “failed”.

“MRVEENYHAFFTEASGFLNERIFKDYLRRLAYGIDASCYRYIPKIVAWVKNEEEVQKLCVLAKKHGVSLTFRAAGSSLSGQAICDGVLVMVTHFFKDAQILDNAQSIQLSCGVIGSNANALLKPYHKKIGPDPSTINTAMIGGIVANNASGMCCGVEQNSYKTLKSLRVILADGTLLDTANQESVESFKNAHKDLIEGVLNLRKEILEDKELHALIKKKYEIKNTTGYSLNALIDFEDPIEIISHLFIGSEGTLGFISSVELECVKDYAYKTCALLFYENLERCAKAAQILAALKAKQPEMISSAELMDYACLKSVKGLEGMPSVVLEIKEPNACLLIQSESDDPLILENSMQTILNALSAIPVVLDSQISSDPSIYQSWWKIRKGIFPIAASKRKSQSSVIIEDICFSQEDFVEGAKAIEGLLKKHGFKDNGIIFGHALSGNLHFVVTPILENEAERKAFENLVSEMFLMVSKSSGSIKAEHGTGRMVAPFVEMEWGEKAYKIHKQIKELFDPNGILNPDVIITNDKEIHTKNLKSIYPIEEHLDMCMECGFCERICPSKDLSLTPRQRIVIHREVEHLKERVSHGHHEDQVLLDELLKESEYLAHATCAVCHMCSTLCPLEIDTGKIALNYYQKNPKGEKIASKILNHMQTTTSMARFSLKSARLVQNLIGSHNLVSLTKGIKKFIKPFPKAFYYMPKNNAYPLENKTLKSEEKVIYFSTCINRSFAPSNKMADKRCIQEVFESLCQKAKVSVMYPNGLNALCCGKAFINYTDLTKQNNEKNHAIFLQLSDKGKIPIVLDHSACSTHFFKQMKAYKDLKVYDLSVYIEEVLSPKLKFNPINEDIGLYTMCALKLENKEELLFNLAKKCTLGEIVIHKETGCCGFAGNKGFFTPELNESALNGFQAFYQSYDLKRGFSTSSTCEIGLSEKTRFSWQHIAYLVDACTL”: the protein production result is “failed”.

For “MNMQKLRIELGEETNDELYDLLLLADPSKDIVDEYLERGECYTAWAGDELAGVYVLLKTRPQTVEIVNIAVKESLQKKGFGKQLVLDAIEKAKKLGADTIEIGTGNSSIHQLSLYQKCGFRIQAIDHDFFLRHYDEDIFENGIQCRDMVRLYLDLLEHHHHHH”, the protein production result is “not failed”.

Take “MASRGLDLWLDEHVWKRKQEIGVKGENLLLPDLWLDFLQLSPIFQRKLAAVIACVRRLRTQATVYPEEDMCMAWARFCDPSDIKVVILGQDPYHGGQANGLAFSVAYGFPVPPSLRNIYAELHRSLPEFSPPDHGCLDAWASQGVLLLNTILTVQKGKPGSHADIGWAWFTDHVISLLSERLKACVFMLWGAKAGDKASLINSKKHLVLTSQHPSPLAQNSTRKSAQQKFLGNNHFVLANNFLREKGLGEIDWRL”: the protein production entry was “not failed”.

As to “NKYNKIANELIKIIGEDNIISITHCATRLRVMVKDREIINDKKVEKVDEVKGVFFTSGQYQIILGTGIVNKVYAEVEKMGLKTLSKKEQDELVKNNE”, the protein production entry is “not failed”.

Turning to “MNPAPFLLLGGALAWLTLYLLGGRKVKAGEFILGAIIFPLSITLQNIVQQLPLLWVGIRPDITSLGTSEIIAISIWMGLIAGIFQELFKYIFVRGKSAGYAFSVGLGFAISEVIFITALVTLSAKGGTPSQPFATNLLSLAERYLVVLFHVGTAIMLTQGTRKVLIEVIGLHALIDSMAAYYQLMSAVYIKTNKIYMIPRILLLTEIVLAVITVIVLIASLPKISQVKEEKEEVIW”, the protein production entry is on record as “failed”.

“MRYVLYVPDISCNHCKMRISKALEELGVKNYEVSVEEKKVVVETENLDSVLKKLEEIDYPVESYQEV”: the protein production result is recorded as “not failed”.

Consider “MRHNIKFKSKGTLKIRNTAQISLWKKCSDSMIADQTYLFINRVQDRRFDEESLRILELSLVAMNVKSFLEVRSRLRDFMRSESVVIFGELTGESMVAKLSVLEFFARAFALLGDMESCLAMRYEALNLRQLKSPSCLWLGVSHSEWTKFAVQSMENGFPSIAGKASENALLSLKKDSLIEPKSEDNSDILDAAEKVRRLRDSAASLTSSHSGIFIYIVSSLKFAVCNRLLTTF”, for which the protein production result is reported as “failed”.

In the case of “MPSAEISSSTEAKQAATTVDVSYKTHVQTFGWQDWAANGASAGTTGLAKRLEAIQIKTSAPASQGGIRYRTHVQTYGWLDWVSDGASSGTTGEAKRLEAIQIELTGALATQYDVYYRVHAQTFGWLDWACNGASAGSAGYAKRLEAIQIVLVPKGGKAPGSTAAPYKELPPAVSYQSYLSGAWQNSVLDNAVSGTVGQAKQIEGIKISLQDKAVSFAGSSIQYRTYLQTYAWQDWTSNGGTSGKPGSGKRVEAVQIKLTGSIASSYDVYYRVHSQTFGWLDWACNGQSAGSAGYAKRIEAIQIVLVKKGGAAPGSTATPYKEAPPSVTYQTYISGGWQPTVADKATSGLAGQGKKTEGLRVSLKAGAQSLGNSSVKYRTYLQTYGWQSWVSNGASSAKAGSGKRMEAIEISLTGDISSQYDIYYRSYVTGYGWLGWACNGATSGTTDYAKPIEAVQAVLVKKGGAAPGSTSNAYLKPEVTGPFEISFSPSGASNFGGLVSIEPDHDVILVASAKGGAGGYQYRYRAELIGGSIQTLKDYSGSSSYTWRPNTPGRYKMYVDVKDSTGTVKTAMFQMSVGLSGIDVSEHQGTIDWKKVKAAGIDYAMIRAGFGWEEIDDQTDASLVQNVTGAKQAGLPFGLYHYSYADTVEEAKKEAEFLLDILEANNIAPSDLSYPIAFDIEEPDRLNVSQRRVNTDMVNAFCEIIRDAGYLPMVYASKTVIQDYLYYDEISANNIWMAAWTSTPNDTEIFDNCFPVDMWQYSESGTVDGINGRVDLNICYTTVFRDGSADTTQKGKVVVDAGSSLNVRKAPSVNADVVGSLYKDDIVTIISETSGWYQIVTSTGVSGYVSAEYIQKI”, the protein production result was “failed”.

As for “MSEPRLPERAEWGTFALILACYGAWLAVIFGLAGLSLWLAIAAMGLVAALHSSLTHEALHGHPFRYRWLNEALMALPLTLCIPYNRFRDLHLAHHLDANLTDPYDDPESNYLDPAIWSRLPGWQRRLYALNNTLAGRMVLGPLIGTACFLRDEARGALRGDRAILLAWALHLPGMAGVLWVVSLSPMPIWAFALSAYIGLGLLKIRTFLEHRAHEKSRARTVVIEDRGLLAFLFLNNNYHVVHHMNPGAPWYALPALYRAGKERYLGCNEGYSYRSYGEVFRRYFWRAKDPVPHPLWPKP”, the protein production entry is listed as “failed”.

For the sequence “MEVERLSLKEFCDMVAERKPTPGGGAVGSVVGAMACALAEMVANFTRKKKGYEDVEPEMERIVEAMEEARLKLFDLAKKDMEAFEKVMKAYKSSEGELQNALKEAASVPMDVIRVMKDLAHELEKLAEFGNKNLASDTLNAADLCHAVFQVEKVNVLINLKEISDETFRKNMLEELEEQEAQIEGCYQRVKKMLEGIVWSSK”, the protein production entry is given as “not failed”.

On to “MSQFQEVRPVAQALYPTHPSTKDALEEARLLLPGGTHHDFMRALMGYHNTLVKVMEEQC”, for which the protein production entry is “not failed”.

For “MAMYIRVKRMKTTYFIQCDPTETVLDVKQKLFALIEQPVNNQRLVLMSTEEVLEDSKSLADQKVENDAVVALTLKKD”, the protein production result is reported as “not failed”.

“MREEQVSDCGSITLEEWNGSSSTKLFKTATITASSSLSIQRSANRFNHVWRRVLQAFVPEASGFPGSVTPDYVGFQLWDTLQGLSTYTKMMLSTQALLSAIGVGEKSATVIGATFQWFLRDFTGMLGGILFTFYQGSNLDSNAKMWRLVADLMNDIAGVASGATRAALTQHFALQDNAADISAKEGSQETMATMMGMSLGMLLARFTSGNPMAIWLSFLSLTVFHMYVLSPEQVSSMEGVLPLWATSLRSTNSKPLHKRVQLGVRVSSLPRLDMLQLLNGVGASSYKNAKYLLAHIKGNVSVILHKDSKPADVLKSYIHAIVLANLMEKSTSFYSEGEAWIDKHYDELLHKVRLNH”: the protein production result is “failed”.

As for “MSYNFEEERVIKEIREKNAKRVLLQFPEGLKYFSIDIVKKLREKLPNVNFIISGEPSWGACDIAEDEAQQVNADLIIHFGHTPYTWYYPKFPTIFINAESNLDISENALHSLENDISKYNGRKISLTATLQHVRLLSKIKSFLEDKGYDIVIGKPSNRFMFDGQVLGCDYKAAEVEADIYVIVSGGLFHALGLGLATNKPTIKLDPYLQKSEDITNDVRKILKVRYGKILQALDKRSWVIIQGVKVGQNRPNMIKYFYDKLTEKGYDVFTVTNKVLTLDILRNLDRNYIDVFLVTSCPRLPIDDLYNYEKPVLTPGEAKMIINNSLEPYIFPW”, the protein production result is “failed”.

On to “MAEELDDLTKFEAKGTSHHLPVGWLALFWGLIVFGAYYYWAYSPALGGWSQAKDLETGGASSGANLLWTIAFTAVPALVAIWMGLTQKKKAR”, for which the protein production entry is listed as “failed”.

As for “MHNDQEISDANRDWWDSDAQRYHNDHAAYLNGFHWCPEMLPEREAHLLGDISGLNVLEIGCGSAPCSRWLFDNYDAFVTGFDLSMGMLRHSPTDVPLTQADAVNLPYKDSSFDIAFSAFGAFPFIENLGPVLKDIARCLKPHGKLVFSTNHPMRWIFPDDPTEIGLCAELSYFDRSYTERDKNGKITYAEFHRTMGDWIELLNASGFIIDRLIEPEWPTNLTETWGQWSPLRGRIFPGTAIFVTHCRLEHHHHHH”, the protein production result is “failed”.

With “MKRKAVNFHPQVDMSIGDKYLLKEFIDEGSFGYVWKAVNLENRQTVALKIPKDQERGDNTLSEGKEFIGSHHPNVISIYWMGRVDGVFLIEMEYFNGHKLSDELCETGFKSPRTFEEIYNLFFQILDGVEYIHSKHICHGDIKPQNILIDGKIAKITDFGTSKLIEDLFIKTIDGGGTWAYMAPEVAGSNRRYLNSDIYSLGVLLYKFLTGRTPHETANQLINNIPYPKPREINNNIPESVERIIMKLLKRNPDERYQNISEIKRDLEEALRSEDRNIISYNERAEVKYEDTDWIERVIRYYKNNEFDKAELLLKTEYENGNKSADVLYHIAYTYFQQGRYFESMDVIKDIDITQVEDIRQEALEDNLLYLKGKLFFELKKYEEAVKVYEKLVSRNPDDLNYRYKLACAYGLNDEQEKSIEILEDINKKTPGMLYIVKKLGHAYDQIKDFKKARAYFNYAIRLDPSDTIIRNRLEEYSKYFNYLGY”, the protein production result was “failed”.

Regarding “MAFVVNGNEYNLAYYLTDEIYPKWATFIQSISLPQDEKASLFATNQEACRKDVERAFGVLQARFAIVKHPALIWDKIKIGNIMRACIILHNMIVEDERDGYTQYDVSDFAHPESASSSQVDFTYSTDMPSNLGNMMATRTRLRDRTKHEHLKADLVEHIWQKFGPIQA”, the protein production entry is “failed”.

For the sequence “MADQNRSEEKTVKSPNVFERVKEEIEAMGHHEKSKSRHHDKETHGTSDDIDESTPIDYVKGPGFFQRLKEEIEAIFNAVTPKRSSKK”, the protein production entry is on record as “failed”.
